According to US20140294819A1 (NVIP, published 2014):
Numbering of substitutions follows the chain as printed.

Key:
[1] = biological target: T1, murine CD20 cyclic (oxidised) peptide SEQ ID NO:6 (murine, disulphide bond between the two cysteine residues; biotinylated); assay: ELISA, purified recombinant antibody on cyclic CD20 peptide
T1 construct: also called M20; mouse CD20 peptide
T1 peptide: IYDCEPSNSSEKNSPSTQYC
Excerpt: (§1) The RA2 and RF2 variable heavy and light chain sequences (SEQ ID NO:23-26) were rebuilt as IgG2a/kappa antibodies by oligonucleotide-based gene synthesis, cloned into pcDNA3.3 vectors and co-expressed in appropriate pairs in CHO cells. The supernatant expressed antibodies were purified by Protein A chromatography and tested for binding by CD20 peptide ELISA (FIG. 11). Both purified recombinant forms of mouse RA2 and RF2 bound strongly to cyclic canine and feline CD20 peptides, and also to mouse and human CD20 peptides (the binding of RA2 to human CD20 peptide was more pronounced than with the corresponding hybridoma supernatant in FIG. 9).

[2] = biological target: T2, canine CD20 cyclic (oxidised, disulphide-bonded) peptide SEQ ID NO:2 (canine, disulphide bond between the two cysteine residues (corresponding to positions 167 and 183); N-terminal biotin in the streptavidin-plate assays); assay: as above
T2 construct: Chemically synthesised and oxidised; also called C20; caCD20 peptide
T2 peptide: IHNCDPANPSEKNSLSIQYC
Excerpt: as §1

[3] = biological target: T3, feline CD20 cyclised peptide SEQ ID NO:4 (feline, cyclised by a disulphide bond between the two cysteine residues); assay: as above
T3 construct: also called feline CD20 peptide
T3 peptide: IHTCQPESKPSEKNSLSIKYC
Excerpt: as §1

[4] = biological target: T4, human CD20 cyclic (oxidised) peptide SEQ ID NO:3 (human, disulphide bond between the two cysteine residues; biotinylated); assay: as above
T4 construct: also called H20; human CD20 cyclic peptide
T4 peptide: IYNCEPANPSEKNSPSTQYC
Excerpt: as §1

[5] = biological target: T1, murine CD20 cyclic (oxidised) peptide …; assay: ELISA, purified antibody on cyclic CD20 peptide
Procedure: (§2) The purified antibodies shown in FIG. 15 were tested for binding to cyclic CD20 peptides from different species by ELISA as above.

[6] = biological target: T2, canine CD20 cyclic (oxidised, …); assay: ELISA, purified antibody on cyclic CD20 peptide
Procedure: as §2

[7] = biological target: T3, feline CD20 cyclised peptide SEQ ID NO:4; assay: ELISA, purified antibody on cyclic CD20 peptide
Procedure: as §2

[8] = biological target: T4, human CD20 cyclic (oxidised) peptide …; assay: ELISA, purified antibody on cyclic CD20 peptide
Procedure: as §2

[9] = biological target: T1, murine CD20 cyclic (oxidised) peptide …; assay: ELISA on cyclised CD20 peptide
[10] = biological target: T3, feline CD20 cyclised peptide SEQ ID NO:4; assay: ELISA on cyclised CD20 peptide
[11] = biological target: T4, human CD20 cyclic (oxidised) peptide …; assay: ELISA on cyclised CD20 peptide
[12] = biological target: T1, murine CD20 cyclic (oxidised) peptide …; assay: ELISA, hybridoma antibody on cyclic CD20 peptide
Excerpt: (§3) Using a combination of cyclic human (SEQ ID NO:3) and canine (SEQ ID NO:2) CD20 peptides, monoclonal antibodies that would bind both human and canine peptides were screened for using conventional hybridoma screening of mice previously immunised with the cyclic canine CD20 peptide of FIG. 1, coupled to diphtheria toxoid at the amino terminus as a source of T-cell help. Two antibody hybridomas were selected, RA2 and RF2 and tested for binding to these as well as to murine (SEQ ID NO:6) and feline (SEQ ID NO:4) CD20 peptides. RA2 and RF2 bound strongly to canine CD20 and RF2 bound strongly to human CD20 peptide whereas RA2 binds more weakly. Unexpectedly RA2 and RF2 bound strongly to feline and also murine CD20 peptides.

[13] = biological target: T2, canine CD20 cyclic (oxidised, …); assay: ELISA, hybridoma antibody on cyclic CD20 peptide
Excerpt: as §3

[14] = biological target: T3, feline CD20 cyclised peptide SEQ ID NO:4; assay: ELISA, hybridoma antibody on cyclic CD20 peptide
Excerpt: as §3

[15] = biological target: T4, human CD20 cyclic (oxidised) peptide …; assay: ELISA, hybridoma antibody on cyclic CD20 peptide
Excerpt: as §3

Measured: binding result

B1: recombinant mouse RA2 (IgG2a/kappa) (antibody)
heavy: QVQLKQSGPGLVPPSQSLSITCTVSGFSLTNYGVHWVRQSPGKGLEWLGVIWSGGTTDYNAAFISRLSISKDNSKSQVFFKMNSLQADDTAIYYCARGPRKFYYYGMDYWGQGTSVTVSSAKTTAPSVYPLAPVCGDTTGSSVTLGCLVKGYFPEPVTLTWNSGSLSSGVHTFPAVLQSDLYTLSSSVTVTSSTWPSQSITCNVAHPASSTKVDKKIEPRGPTIKPCPPCKCPAPNLLGGPSVFIFPPKIKDVLMISLSPIVTCVVVDVSEDDPDVQISWFVNNVEVHTAQTQTHREDYNSTLRVVSALPIQHQDWMSGKEFKCKVNNKDLPAPIERTISKPKGSVRAPQVYVLPPPEEEMTKKQVTLTCMVTDFMPEDIYVEWTNNGKTELNYKNTEPVLDSDGSYFMYSKLRVEKKNWVERNSYSCSVVHEGLHNHHTTKSFSRTPGK
light: DVLMTQTPLSLPVSLGDQASISCRSSQSIVHSNGNTYLEWYLQKPGQSPKLLIYKVSNRFSGVPDRFSGSGSGTDFTLKISRVEAGDLGVYYCFQGLHVPLTFGAGTRLELKRADAAPTVSIFPPSSEQLTSGGASVVCFLNNFYPKDINVKWKIDGSERQNGVLNSWTDQDSKDSTYSMSSTLTLTKDEYERHNSYTCEATHKTSTSPIVKSFNRNEC
notes: also called muRA2
binds: [1] | [2] | [3] | [4]

B2: caninised RA2, HCB isotype (antibody)
heavy: EVQLVQSGGGLVKPTESLTISCVVSGFSLTNYGVHWVRQSPGKGLEWLGVIWSGGTTDYNAAFISRLSISKDNSKSTVFLRMNSLRADDTAIYYCARGPRKFYYYGMDYWGQGTSVTVSSASTTAPSVFPLAPSCGSTSGSTVALACLVSGYFPEPVTVSWNSGSLTSGVHTFPSVLQSSGLYSLSSMVTVPSSRWPSETFTCNVAHPASKTKVDKPVPKRENGRVPRPPDCPKCPAPEMLGGPSVFIFPPKPKDTLLIARTPEVTCVVVDLDPEDPEVQISWFVDGKQMQTAKTQPREEQFNGTYRVVSVLPIGHQDWLKGKQFTCKVNNKALPSPIERTISKARGQAHQPSVYVLPPSREELSKNTVSLTCLIKDFFPPDIDVEWQSNGQQEPESKYRTTPPQLDEDGSYFLYSKLSVDKSRWQRGDTFICAVMHEALHNHYTQESLSHSPGK
light: DIVMTQTPLSLSVSQEEEASISCRSSQSIVHSNGNTYLEWYLQKPGQSPKLLIYKVSNRFSGVPDRFSGSGSGTDFTLKISRVEAGDAGVYYCFQGLHVPLTFGAGTKLELKRNDAQPAVYLFQPSPDQLHTGSASVVCLLNSFYPKDINVKWKVDGVIQDTGIQESVTEQDKDSTYSLSSTLTMSSTEYLSHELYSCEITHKSLPSTLIKSFQRSECQRVD
notes: also called caRA2-B
binds: [5] | [6] | [7] | [8]

B3: chimeric mouse-canine RA2, HCB isotype (antibody)
heavy: QVQLKQSGPGLVPPSQSLSITCTVSGFSLTNYGVHWVRQSPGKGLEWLGVIWSGGTTDYNAAFISRLSISKDNSKSQVFFKMNSLQADDTAIYYCARGPRKFYYYGMDYWGQGTSVTVSSASTTAPSVFPLAPSCGSTSGSTVALACLVSGYFPEPVTVSWNSGSLTSGVHTFPSVLQSSGLYSLSSMVTVPSSRWPSETFTCNVAHPASKTKVDKPVPKRENGRVPRPPDCPKCPAPEMLGGPSVFIFPPKPKDTLLIARTPEVTCVVVDLDPEDPEVQISWFVDGKQMQTAKTQPREEQFNGTYRVVSVLPIGHQDWLKGKQFTCKVNNKALPSPIERTISKARGQAHQPSVYVLPPSREELSKNTVSLTCLIKDFFPPDIDVEWQSNGQQEPESKYRTTPPQLDEDGSYFLYSKLSVDKSRWQRGDTFICAVMHEALHNHYTQESLSHSPGK
light: B2 light with I2V, V3L, S12P, Q15L, E16G, E17D, E18Q, A88L, K108R
notes: also called chiRA2-B; chimeric RA2
binds: [5] | [6] | [7] | [8]

B4: caninised RA2, HCC isotype (antibody)
heavy: EVQLVQSGGGLVKPTESLTISCVVSGFSLTNYGVHWVRQSPGKGLEWLGVIWSGGTTDYNAAFISRLSISKDNSKSTVFLRMNSLRADDTAIYYCARGPRKFYYYGMDYWGQGTSVTVSSASTTAPSVFPLAPSCGSQSGSTVALACLVSGYIPEPVTVSWNSVSLTSGVHTFPSVLQSSGLYSLSSMVTVPSSRWPSETFTCNVAHPATNTKVDKPVAKECECKCNCNNCPCPGCGLLGGPSVFIFPPKPKDILVTARTPTVTCVVVDLDPENPEVQISWFVDSKQVQTANTQPREEQSNGTYRVVSVLPIGHQDWLSGKQFKCKVNNKALPSPIEEIISKTPGQAHQPNVYVLPPSRDEMSKNTVTLTCLVKDFFPPEIDVEWQSNGQQEPESKYRMTPPQLDEDGSYFLYSKLSVDKSRWQRGDTFICAVMHEALHNHYTQISLSHSPGK
light: B2 light
notes: See note of m19; also called caRA2-C
binds: [5] | [6] | [7] | [8]

B5: caninised RF2, HCB isotype (antibody)
heavy: B2 heavy with V24I, N31S, T56S, T57I, L80I, Y105F
light: B2 light with S28N, L38V, G86E, L97S
notes: also called caRF2-B
binds: [9] | [10] | [11] | [6]

B6: chimeric mouse-canine RF2, HCB isotype (antibody)
heavy: B3 heavy with V24I, N31S, K43W, T56S, T57I, F80I, Y105F
light: DVVMTQTPLSLPVSLGDQASISCRSSQNIVHSNGNTYVEWYLQKPGQSPKLLIYKVSNRFSGVPDRFSGSGSGTDFTLKISRVEAEDLGVYYCFQGSHVPLTFGAGTKLELKRNDAQPAVYLFQPSPDQLHTGSASVVCLLNSFYPKDINVKWKVDGVIQDTGIQESVTEQDKDSTYSLSSTLTMSSTEYLSHELYSCEITHKSLPSTLIKSFQRSECQRVD
notes: also called chiRF2-B; chimeric RF2
binds: [5] | [6] | [7] | [8]

B7: RA2 murine monoclonal antibody (hybridoma) (antibody, V domains shown)
VH: QVQLKQSGPGLVPPSQSLSITCTVSGFSLTNYGVHWVRQSPGKGLEWLGVIWSGGTTDYNAAFISRLSISKDNSKSQVFFKMNSLQADDTAIYYCARGPRKFYYYGMDYWGQGTSVTVSS
VL: DVLMTQTPLSLPVSLGDQASISCRSSQSIVHSNGNTYLEWYLQKPGQSPKLLIYKVSNRFSGVPDRFSGSGSGTDFTLKISRVEAGDLGVYYCFQGLHVPLTFGAGTRLELK
notes: Hybridoma supernatant; also called muRA2
binds: [12] | [13] | [14] | [15]

B8: RF2 murine monoclonal antibody (hybridoma) (antibody, V domains shown)
VH: B7 VH with V24I, N31S, K43W, T56S, T57I, F80I, Y105F
VL: B7 VL with L3V, S28N, L38V, G86E, L97S, R108K
notes: Hybridoma supernatant; also called muRF2
binds: [12] | [13] | [14] | [15]
